Data reported in patent publication US20170291955A1 (AstraZeneca / MedImmune, published 2017).

How the values were obtained:
C1q = C1q (Homo sapiens (Human), UniProt P02745 23-245; P02746 28-253; P02747 29-245); assay: BIAcore per table head; method for C1q not described
human FcγRI = biological target: T1, human FcγRI (human, UniProt P12314 16-288); assay: SPR, antibody immobilised, receptor injected, steady-state fit (table head: BIAcore; paragraph 688: ProteOn XPR36)
T1 construct: also called FcgRI
Description: (§1) The binding constants (KD) for the binding of anti-HER2 bispecific antibodies to human FcγRs were measured on a ProteOn XPR36 instrument. Briefly, the bispecific antibodies were immobilized at high density on a GLC sensor chip using a standard amino coupling chemistry as outlined by the instrument manufacturer. The final surface density of IgG measured approximately 3000 RU. A reference flow cell was also prepared on this sensor chip using the identical immobilization protocol minus protein. […] Each concentration of FcγR was injected over both the bispecific antibody and reference cell surfaces at a flow rate of 25 μL/min for 8 min, during which binding data were collected. Between injections, the surfaces were regenerated (i.e., bound FcγR was removed) with a 60-sec pulse of 5 mM HCl. Several buffer injections were also interspersed throughout the injection series. Later, one of these buffer injections along with the reference cell data was used to correct the binding data for any injection artifacts (e.g., nonspecific binding) through a technique commonly referred to as “double-referencing” (Myszka, 1999). After all binding data were collected, individual data sets were averaged for binding (Response at equilibrium [Req]) at each concentration (C), and then fit to a 1:1 binding isotherm (Req vs. C) plot.

human FcγRIIIA-158F = biological target: T2, human FcγRIIIA-158F (human, UniProt P08637 17-208); assay: as above
T2 construct: also called FcgRIIIa (158F)
Description: as §1

human FcγRIIA = biological target: T3, human FcγRIIA (human, UniProt P12318 36-218); assay: as above
T3 construct: also called FcgRIIa
T3 sequence (looked up): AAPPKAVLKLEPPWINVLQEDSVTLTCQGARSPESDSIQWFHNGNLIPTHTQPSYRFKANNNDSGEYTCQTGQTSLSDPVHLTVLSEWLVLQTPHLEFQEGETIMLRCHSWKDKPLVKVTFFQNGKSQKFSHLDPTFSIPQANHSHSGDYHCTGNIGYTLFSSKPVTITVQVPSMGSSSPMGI
Description: as §1

human FcγRIIb = biological target: T4, human FcγRIIb (human, UniProt P31994 43-217); assay: as above
T4 construct: also called FcgRIIb
T4 sequence (looked up): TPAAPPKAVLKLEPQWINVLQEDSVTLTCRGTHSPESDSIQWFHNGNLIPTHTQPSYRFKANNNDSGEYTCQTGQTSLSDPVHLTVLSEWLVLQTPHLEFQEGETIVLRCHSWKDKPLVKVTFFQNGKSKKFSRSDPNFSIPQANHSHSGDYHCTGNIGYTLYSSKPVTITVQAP
Description: as §1

[1] = biological target: T5, human EGFR recombinant extracellular domain protein (human, UniProt P00533 25-645); assay: capture ELISA as in Example 1
T5 construct: extracellular domain
Description: (§2) Antibody to be tested was prepared by diluting in a stepwise 1:3 serial dilution ranging from 50 nM down to 0.28 pM and then added to the wells in duplicate. After one hour of incubation, plates were washed, and goat anti-human IgG Fab HRP-conjugated secondary antibody was added to each well and the plates were incubated for 1 hour. The plates were washed and TMB substrate was added and incubated for 5-20 min to allow color development. The stop solution was added to the wells at the end of reaction and the plates were read at 450 nm. Binding signal (absorbance at 450 nm) was plotted against antibody concentration using Prism software.

[2] = biological target: T6, human HER3 recombinant extracellular domain protein (human, UniProt P21860 20-643); assay: capture ELISA as in Example 1
T6 construct: extracellular domain
Description: as §2

[3] = biological target: T7, human HER4 recombinant extracellular domain protein (human, UniProt Q15303 26-651); assay: capture ELISA as in Example 1
T7 construct: extracellular domain
T7 sequence (looked up): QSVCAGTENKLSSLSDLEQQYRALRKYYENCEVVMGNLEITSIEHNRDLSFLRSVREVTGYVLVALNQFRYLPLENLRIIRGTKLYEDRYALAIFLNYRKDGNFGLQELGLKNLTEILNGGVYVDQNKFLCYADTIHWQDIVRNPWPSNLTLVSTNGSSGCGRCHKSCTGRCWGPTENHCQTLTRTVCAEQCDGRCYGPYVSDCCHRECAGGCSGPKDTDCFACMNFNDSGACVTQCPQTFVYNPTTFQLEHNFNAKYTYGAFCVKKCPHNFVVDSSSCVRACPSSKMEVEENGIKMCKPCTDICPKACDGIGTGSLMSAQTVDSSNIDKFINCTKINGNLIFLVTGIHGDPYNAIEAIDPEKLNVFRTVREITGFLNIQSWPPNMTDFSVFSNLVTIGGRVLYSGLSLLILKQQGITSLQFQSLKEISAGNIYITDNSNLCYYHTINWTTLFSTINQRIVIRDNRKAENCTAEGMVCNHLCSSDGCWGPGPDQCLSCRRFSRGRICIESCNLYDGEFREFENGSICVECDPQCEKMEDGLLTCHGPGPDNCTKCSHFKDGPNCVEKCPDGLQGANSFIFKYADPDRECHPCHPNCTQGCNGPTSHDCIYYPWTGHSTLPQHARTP
Description: as §2

human FcγRIIIA-158V = biological target: T8, human FcγRIIIA-158V (human, UniProt P08637 17-208); assay: SPR, antibody immobilised, receptor injected, steady-state fit (table head: BIAcore; paragraph 688: ProteOn XPR36)
T8 construct: also called FcgRIIIa (158V); hFcgRIIIA-158V
Description: as §1

T2 sequence (P08637 17-208 limits assumed): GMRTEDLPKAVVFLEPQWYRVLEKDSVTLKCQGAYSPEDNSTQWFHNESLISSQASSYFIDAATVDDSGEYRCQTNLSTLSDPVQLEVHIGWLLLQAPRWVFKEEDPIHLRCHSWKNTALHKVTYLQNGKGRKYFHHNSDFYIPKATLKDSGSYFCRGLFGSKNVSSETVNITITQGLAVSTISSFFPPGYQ
T1 sequence (P12314 16-288 limits assumed): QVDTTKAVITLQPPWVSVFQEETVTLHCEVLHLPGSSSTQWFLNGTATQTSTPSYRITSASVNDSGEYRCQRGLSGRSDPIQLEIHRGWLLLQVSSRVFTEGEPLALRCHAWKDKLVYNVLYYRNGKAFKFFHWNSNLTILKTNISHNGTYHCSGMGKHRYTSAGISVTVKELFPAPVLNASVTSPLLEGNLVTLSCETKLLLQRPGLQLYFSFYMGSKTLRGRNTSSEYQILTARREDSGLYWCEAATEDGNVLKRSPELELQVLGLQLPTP
Sequence of C1q (P02745 23-245 limits assumed, chain 1 of 3): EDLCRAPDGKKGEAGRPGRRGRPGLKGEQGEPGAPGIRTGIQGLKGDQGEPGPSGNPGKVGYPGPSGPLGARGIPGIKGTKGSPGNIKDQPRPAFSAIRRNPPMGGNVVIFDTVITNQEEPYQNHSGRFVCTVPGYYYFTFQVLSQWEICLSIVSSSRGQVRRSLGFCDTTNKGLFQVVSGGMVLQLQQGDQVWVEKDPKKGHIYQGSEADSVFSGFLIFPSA
Sequence of C1q (P02746 28-253 limits assumed, chain 2 of 3): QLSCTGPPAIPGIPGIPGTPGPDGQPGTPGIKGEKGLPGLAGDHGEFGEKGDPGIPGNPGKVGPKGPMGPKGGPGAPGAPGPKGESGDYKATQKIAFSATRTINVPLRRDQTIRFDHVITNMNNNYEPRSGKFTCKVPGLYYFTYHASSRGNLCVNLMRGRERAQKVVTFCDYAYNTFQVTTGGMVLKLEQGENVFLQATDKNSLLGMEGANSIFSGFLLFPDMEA
Sequence of C1q (P02747 29-245 limits assumed, chain 3 of 3): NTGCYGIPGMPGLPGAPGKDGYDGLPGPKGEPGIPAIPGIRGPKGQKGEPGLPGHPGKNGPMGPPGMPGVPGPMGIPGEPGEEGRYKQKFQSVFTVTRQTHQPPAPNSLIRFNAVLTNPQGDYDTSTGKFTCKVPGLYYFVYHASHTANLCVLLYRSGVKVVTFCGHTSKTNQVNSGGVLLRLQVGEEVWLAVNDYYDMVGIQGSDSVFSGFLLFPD
T8 sequence (P08637 17-208 F176V limits assumed): as the sequence (P08637 17-208 limits assumed) above, with F160V counted along it

B1: Bs2Ab-39SH (bispecific antibody, human IgG1, kappa)
heavy: not shown
light: DIVMTQTPLSLSVTPGQPASISCKSSQSVFFRSNNKNILAWYLQKPGQPPQLLIYWASSRESGVPDRFSGSGSGTDFTLKISRVEAEDVGVYYCQQYFGSPFTFGPGTKVDIKRTVAAPSVFIFPPSDEQLKSGTASVVCLLNNFYPREAKVQWKVDNALQSGNSQESVTEQDSKDSTYSLSSTLTLSKADYEKHKVYACEVTHQGLSSPVTKSFNRGEC
With B1 the Kd (C1q) was 75.6 nM, the Kd (human FcγRI) was 7 nM and the Kd (human FcγRIIIA-158F) was 1990 nM. The Kd (human FcγRIIA) was 1300 nM, the Kd (human FcγRIIb) was 2750 nM and the binding result [1] was “no binding”. B1: no binding [2]; no binding [3].

B2: Bs4Ab-39SH (bispecific antibody)
heavy: not shown
light: DIVMTQTPLSLSVTPGQPASISCKSSQSVFFRSNNKNILAWYLQKPGQPPQLLIYWASSRESGVPDRFSGSGSGTDFTLKISRVEAEDVGVYYCQQYFGSPFTFGPGTKVDIKRTVAAPSVFIFPPSDEQLKSGTASVVCLLNNFYPREAKVQWKVDNALQSGNSQESVTEQDSKDSTYSLSSTLTLSKADYEKHKVYACEVTHQGLSSPVTKSFNRGEC
With B2 the Kd (C1q) was 88.6 nM, the Kd (human FcγRI) was 13 nM and the Kd (human FcγRIIIA-158F) was 1780 nM. The Kd (human FcγRIIA) was 1190 nM, the Kd (human FcγRIIb) was 2790 nM and the binding result [1] was “no binding”. B2: no binding [2]; no binding [3].

B3: Bs2Ab-39SH_aFuc (bispecific antibody, human IgG1, kappa)
heavy: not shown
light: DIVMTQTPLSLSVTPGQPASISCKSSQSVFFRSNNKNILAWYLQKPGQPPQLLIYWASSRESGVPDRFSGSGSGTDFTLKISRVEAEDVGVYYCQQYFGSPFTFGPGTKVDIKRTVAAPSVFIFPPSDEQLKSGTASVVCLLNNFYPREAKVQWKVDNALQSGNSQESVTEQDSKDSTYSLSSTLTLSKADYEKHKVYACEVTHQGLSSPVTKSFNRGEC
notes: also called afucosylated Bs2Ab-39SH; homogenously afucosylated Bs2Ab-39SH
B3 was tested, and the Kd (C1q) was 130 nM, the Kd (human FcγRI) was 0.98 nM and the Kd (human FcγRIIIA-158F) was 216 nM. The Kd (human FcγRIIA) was 1250 nM, the Kd (human FcγRIIb) was 2400 nM and the Kd (human FcγRIIIA-158V) was 40 nM.

B4: Bs3Ab-39SH (bispecific antibody, human IgG1, kappa)
heavy: not shown
light: DIVMTQTPLSLSVTPGQPASISCKSSQSVFFRSNNKNILAWYLQKPGQPPQLLIYWASSRESGVPDRFSGSGSGTDFTLKISRVEAEDVGVYYCQQYFGSPFTFGPGTKVDIKRTVAAPSVFIFPPSDEQLKSGTASVVCLLNNFYPREAKVQWKVDNALQSGNSQESVTEQDSKDSTYSLSSTLTLSKADYEKHKVYACEVTHQGLSSPVTKSFNRGEC
B4: no binding [1]; no binding [2]; no binding [3].

B5: Bs4Ab-39SH_aFuc (bispecific antibody)
heavy: not shown
light: DIVMTQTPLSLSVTPGQPASISCKSSQSVFFRSNNKNILAWYLQKPGQPPQLLIYWASSRESGVPDRFSGSGSGTDFTLKISRVEAEDVGVYYCQQYFGSPFTFGPGTKVDIKRTVAAPSVFIFPPSDEQLKSGTASVVCLLNNFYPREAKVQWKVDNALQSGNSQESVTEQDSKDSTYSLSSTLTLSKADYEKHKVYACEVTHQGLSSPVTKSFNRGEC
notes: also called afucosylated Bs4Ab-39SH; homogenously afucosylated Bs4Ab-39SH
With B5 the Kd (C1q) was 446 nM, the Kd (human FcγRI) was 0.98 nM and the Kd (human FcγRIIIA-158F) was 223 nM. For the same binder, the Kd (human FcγRIIA) was 1260 nM, the Kd (human FcγRIIb) was 2560 nM and the Kd (human FcγRIIIA-158V) was 45 nM.

B6: Bs4-4T (bispecific antibody)
heavy: not shown
light: DIVMTQTPLSLSVTPGQPASISCKSSQSVFFRSNNKNILAWYLQKPGQPPQLLIYWASSRESGVPDRFSGSGSGTDFTLKISRVEAEDVGVYYCQQYFGSPFTFGPGTKVDIKRTVAAPSVFIFPPSDEQLKSGTASVVCLLNNFYPREAKVQWKVDNALQSGNSQESVTEQDSKDSTYSLSSTLTLSKADYEKHKVYACEVTHQGLSSPVTKSFNRGEC
modifications: tubulysin 1508 (Compound T32) on engineered Cys 239 and Cys 442 (EU index), thiol-maleimide linkage
notes: Antibody-drug conjugate, DAR about 4; also called Bs4Ab-4T; Bs4Ab-39SH-(FCC) conjugated to 4 tubulysins
B6: no binding [1]; no binding [2]; no binding [3].

B7: Bs2-4T (bispecific antibody, name in EU numbering)
heavy: not shown
light: DIVMTQTPLSLSVTPGQPASISCKSSQSVFFRSNNKNILAWYLQKPGQPPQLLIYWASSRESGVPDRFSGSGSGTDFTLKISRVEAEDVGVYYCQQYFGSPFTFGPGTKVDIKRTVAAPSVFIFPPSDEQLKSGTASVVCLLNNFYPREAKVQWKVDNALQSGNSQESVTEQDSKDSTYSLSSTLTLSKADYEKHKVYACEVTHQGLSSPVTKSFNRGEC
modifications: tubulysin 1508 (Compound T32) on engineered Cys 239 and Cys 442 (EU index), thiol-maleimide linkage
notes: Antibody-drug conjugate, DAR about 4; also called Bs2Ab-4T; Bs2Ab-39SH-(FCC) construct conjugated to 4 tubulysins
B7: no binding [1]; no binding [2]; no binding [3].
